Target: T1, RALA (residues 1-183) (UniProt P11233 1-183)
T1 sequence: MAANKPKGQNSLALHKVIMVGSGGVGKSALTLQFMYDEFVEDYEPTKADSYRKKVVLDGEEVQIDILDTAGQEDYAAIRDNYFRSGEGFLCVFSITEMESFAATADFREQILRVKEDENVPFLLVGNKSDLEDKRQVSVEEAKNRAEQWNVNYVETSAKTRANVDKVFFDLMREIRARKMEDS
Test: NMR titration

binding result: binds
B1: human RLIP76 RBD (residues 395-517) (domain or fragment)
chain: QAGIKEEIRRQEFLLNCLHRDLQGGIKDLSKEERLWEVQRILTALKRKLREAKRQECETKIAQEIASLSKEDVSKEEMNENEEVINILLAQENEILTEQEELLAMEQFLRRQIASEKEEIERL
